Laboratory results taken from the Immune Epitope Database (IEDB).

Legend:
HLA-A*02:01 [1] = assay: IEDB peptide-MHC binding, purified MHC/competitive/fluorescence; filed as Kd, often an IC50 or EC50 that approximates it; ≥ and ≤ were set here for values at or beyond the usual limits of such assays
HLA-A*02:02 = assay: IEDB peptide-MHC binding, purified MHC/competitive/radioactivity; filed as Kd, often an IC50 or EC50 that approximates it; ≥ and ≤ were set here for values at or beyond the usual limits of such assays
HLA-A*02:03 = assay: as above
HLA-A*02:06 = assay: as above
HLA-B*35:01 = assay: as above
HLA-B*51:01 = assay: as above
HLA-A*02:01 [2] = assay: IEDB peptide-MHC binding, purified MHC/competitive/fluorescence; ≥ and ≤ were set here for values at or beyond the usual limits of such assays
HLA-A*24:02 = assay: as above
HLA-A*30:02 = assay: IEDB peptide-MHC binding, purified MHC/competitive/radioactivity; filed as Kd, often an IC50 or EC50 that approximates it; ≥ and ≤ were set here for values at or beyond the usual limits of such assays; conditions: source organism: Dengue virus 3 Martinique/1243/1999
HLA-B*15:01 = assay: IEDB peptide-MHC binding, purified MHC/direct/fluorescence; filed as Kd, often an IC50 or EC50 that approximates it; ≥ and ≤ were set here for values at or beyond the usual limits of such assays; conditions: source organism: Mammarenavirus juninense
HLA-B*58:01 = assay: as above; conditions: source organism: Mammarenavirus juninense
HLA-B*53:01 = assay: IEDB peptide-MHC binding, purified MHC/competitive/radioactivity; filed as Kd, often an IC50 or EC50 that approximates it; ≥ and ≤ were set here for values at or beyond the usual limits of such assays; conditions: source organism: Dengue virus 2 16681-PDK53
HLA-A*03:01 = assay: IEDB peptide-MHC binding, purified MHC/direct/fluorescence; filed as Kd, often an IC50 or EC50 that approximates it; ≥ and ≤ were set here for values at or beyond the usual limits of such assays; conditions: source organism: Vibrio cholerae
[3] = source organism: Vaccinia virus WR
[4] = source organism: Dengue virus 2 Jamaica/1409/1983
[5] = source organism: Zaire ebolavirus
[6] = source organism: SARS coronavirus Tor2
[7] = source organism: Dengue virus 4 Philippines/H241/1956
[8] = source organism: Vaccinia virus
[9] = source organism: Sudan ebolavirus
[10] = source organism: Dengue virus 1 Brazil/97-11/1997
[11] = source organism: Mycobacterium tuberculosis
[12] = source organism: Lymphocytic choriomeningitis virus (strain Armstrong)

Sequence | Kd (HLA-A*02:02; [3]) | Kd (HLA-A*02:03; [3]) | Kd (HLA-A*02:06; [3]) | further results
DIKPDNILL | – | – | – | Kd (HLA-A*02:01 [1]; source organism: Trichodesmium erythraeum IMS101): ≥ 20 µM
KISVEKIKQT | 1230 nM | 8960 nM | ≥ 21 µM | –
FPVSIPITA | – | – | – | Kd (HLA-B*35:01; [4]): 0.0017 µM; Kd (HLA-B*51:01; [4]): 3.72 µM
SVNASKTINA | 17300 nM | 731 nM | ≥ 28.8 µM | –
VAVSFVTLI | – | – | – | Kd (HLA-B*51:01; [4]): 0.431 µM
SAIALGVAT | – | – | – | IC50 (HLA-A*02:01 [2]; [5]): ≥ 242 µM
TQWSLFFFV | – | – | – | Kd (HLA-A*02:02; [6]): 79.6 nM; Kd (HLA-A*02:03; [6]): 540 nM; Kd (HLA-A*02:06; [6]): 0.000812 µM
GIVRQRVIP | – | – | – | IC50 (HLA-A*24:02; [5]): ≥ 151 µM
GPLRMVLAFI | – | – | – | Kd (HLA-B*51:01; [7]): ≥ 35.5 µM
MKDEPVVFS | – | – | – | IC50 (HLA-A*02:01 [2]; [5]): ≥ 420 µM
KLGFDEIKGL | – | – | – | Kd (HLA-A*02:01 [1]; source organism: Variola virus): 0.134 µM
VISTIANSNI | 282 nM | 845 nM | 5.16 µM | –
AWNVWEVEDY | – | – | – | Kd (HLA-A*30:02): ≥ 69.7 µM
FVVFLLVTL | – | – | – | Kd (HLA-A*02:02; [6]): 217 nM; Kd (HLA-A*02:03; [6]): 1640 nM; Kd (HLA-A*02:06; [6]): 0.0377 µM
PFARLLNLS | – | – | – | IC50 (HLA-A*02:01 [2]; [5]): ≥ 309 µM; IC50 (HLA-A*24:02; [5]): 15.8 µM
HLRASTTENA | 488 nM | 37.9 nM | ≥ 69.8 µM | –
HAKYMVTDKT | 9030 nM | ≥ 35000 nM | ≥ 65.1 µM | –
RNLNVTTQS | – | – | – | IC50 (HLA-A*02:01 [2]; [8]): ≥ 558 µM
HYWTAQEQH | – | – | – | IC50 (HLA-A*24:02; [9]): 51.1 µM
SYNDYFNVL | – | – | – | IC50 (HLA-A*24:02; [8]): 0.0983 µM
DTDIVNNFI | 9320 nM | 19400 nM | 15.7 µM | –

Sequence | Kd (HLA-A*02:02; [3]) | Kd (HLA-A*02:03; [3]) | Kd (HLA-A*02:06; [3]) | further results
WIPYFGPGA | – | – | – | IC50 (HLA-A*02:01 [2]; [9]): 1.46 µM
KLIADSIDF | – | – | – | Kd (HLA-B*15:01): 0.0675 µM; Kd (HLA-B*58:01): 1.62 µM
FMSMVSHEL | – | – | – | Kd (HLA-A*02:01 [1]; source organism: Bacillus anthracis str. A0488): 0.0005 µM
NPTVDGITV | – | – | – | Kd (HLA-B*51:01; [4]): 6.3 µM
VPLLAMGCY | – | – | – | Kd (HLA-B*35:01; [7]): 0.112 µM
LPLPWTSGAS | – | – | – | Kd (HLA-B*35:01; [10]): 0.938 µM; Kd (HLA-B*51:01; [10]): 10.6 µM
AYAQMWSLMY | – | – | – | Kd (HLA-A*30:02): 0.169 µM
TAGNKVDVDI | 11000 nM | 3500 nM | ≥ 38 µM | –
LMIGNYFSGV | 0.126 nM | 0.0932 nM | 0.000132 µM | –
NTCKPTILAT | 460 nM | 248 nM | 3.92 µM | –
QPENLEYTI | – | – | – | Kd (HLA-B*53:01): 0.028 µM
WVIILFQRT | – | – | – | IC50 (HLA-A*24:02; [5]): ≥ 1990 µM
MLFTKFFYL | – | – | – | Kd (HLA-A*02:02; [6]): 0.0849 nM; Kd (HLA-A*02:03; [6]): 17.2 nM; Kd (HLA-A*02:06; [6]): 0.00143 µM
LAFSIMKSV | – | – | – | Kd (HLA-B*51:01; source organism: Dengue virus 3 Martinique/1243/1999): 0.155 µM
FTILEYLYI | 1560 nM | 169 nM | 0.267 µM | –
FVTDYVHEGV | 23.8 nM | 1.68 nM | 0.0106 µM | –
ASDTPSATT | – | – | – | IC50 (HLA-A*02:01 [2]; [5]): ≥ 614 µM
IVSKCIVQSV | 123 nM | 30.8 nM | 0.552 µM | –
RTWKVLSIMA | ≥ 24000 nM | 6050 nM | 5.75 µM | –
GLRQQLEDI | 43 nM | 4.72 nM | 4.31 µM | –
NYTENTSSY | – | – | – | IC50 (HLA-A*24:02; [9]): 6.23 µM

Sequence | Kd (HLA-A*02:02; [3]) | Kd (HLA-A*02:03; [3]) | Kd (HLA-A*02:06; [3]) | further results
KLAGGVAVI | – | – | – | IC50 (HLA-A*02:01 [2]; [11]): 0.12 µM
IVPDADPPI | 5080 nM | 10700 nM | 0.274 µM | –
GVDFQESAD | – | – | – | IC50 (HLA-A*24:02; [5]): ≥ 117 µM
AQFLYLYAL | – | – | – | Kd (HLA-A*02:02; [6]): 0.92 nM; Kd (HLA-A*02:03; [6]): 6.23 nM; Kd (HLA-A*02:06; [6]): 0.000346 µM
YIEDELRRAA | 628 nM | 166 nM | 0.204 µM | –
DTCGASINIT | ≥ 23600 nM | ≥ 70400 nM | ≥ 69.8 µM | –
ALMDLLMFS | – | – | – | Kd (HLA-A*02:02; [12]): 0.936 nM; Kd (HLA-A*02:03; [12]): 103 nM; Kd (HLA-A*02:06; [12]): 0.0138 µM
KLQERLAKL | – | – | – | IC50 (HLA-A*02:01 [2]; [11]): 0.1 µM
LLALGCYSQV | – | – | – | Kd (HLA-A*02:03; [10]): 12.7 nM
MSCDDVVFGI | – | – | – | Kd (HLA-A*02:02; [12]): 1040 nM; Kd (HLA-A*02:03; [12]): 12100 nM; Kd (HLA-A*02:06; [12]): 0.249 µM
PFIRNPNKM | – | – | – | IC50 (HLA-A*24:02; [3]): 0.0658 µM
LTSVDIETAI | 509 nM | 2150 nM | 3.13 µM | –
STDQDTMLFA | 646 nM | 4700 nM | 2.02 µM | –
LTGNNTITT | 5750 nM | 5620 nM | 8.68 µM | –
LSARHASGK | – | – | – | Kd (HLA-A*03:01): 0.127 µM
NYEAGEWAE | – | – | – | IC50 (HLA-A*24:02; [5]): 13.4 µM
VIVENDNVI | 15500 nM | 19500 nM | 7.23 µM | –
LTTLATIST | – | – | – | IC50 (HLA-A*02:01 [2]; [5]): 7.63 µM
AVITETIPI | 324 nM | 43.1 nM | 0.00646 µM | –
